Results from paper PMC5639367 (2017).
Ends that are not written are not given here.

Each binder was assayed against VBC ternary complex (pVHL, Elongin B, Elongin C) (UniProt P40337 1-213; Q15370 1-104; Q15369 17-112) (assay: BLI).

Row | Binder | Kd
1 | MSLKPRVA-NH2 [8-mer Cul2 peptide, Val8 replaced by alanine] | 500 µM
2 | MALKPRVV-NH2 [8-mer Cul2 peptide, Ser2 replaced by alanine] | 7100 µM
3 | MSLKPRAV-NH2 [8-mer Cul2 peptide, Val7 replaced by alanine] | 2100 µM
4 | MSAKPRVV-NH2 [8-mer Cul2 peptide, Leu3 replaced by alanine] | 2900 µM
5 | ASLKPRVV-NH2 [8-mer Cul2 peptide, Met1 replaced by alanine] | 2800 µM
